Tests used:
[1] = system: V79-4 cells; assay: Cytotoxicity MTT test; format: cell-based, Chinese hamster
Protocol: In order to identify the safety of the compound of Chemical Formula 1 when used as a cosmetic raw material, V79–4 cells (Chinese hamster, continuous cell line of lung tissue fibroblast) were cultured and an MTT test was conducted to test cytotoxicity for the compound [Reference: Mossaman T. (1983). Rapid colorimetric assay for cellular growth & survival: application to proliferation & cytotoxicity assays. Journal of Immunological Methods 65, 55–63).

[2] = system: wrinkles on the outer corners of the eyes (crow's-feet); assay: Anti-aging effects, O/W emulsion applied to crow's-feet of human subjects; format: in vivo; conditions: 29 women in their thirties, 3 months, one time each day
Protocol: In order to examine anti-aging effects of the Tat-human Type-collagen DP prepared in Example 1, an O/W emulsion comprising the compound of Chemical Formula 1 of the present invention and a control were each applied to human subjects. In particular, the O/W emulsion and control were coated on wrinkles on the outer corners of the eyes (i.e., crow's-feet) of 29 women in their thirties. Application was performed for 3 months, one time each day. Visual observation of anti-aging effects, if any, was performed and ranked according to a scale of four possibilities—no improvement, little improvement, medium improvement, and significant improvement.

[3] = system: Balb/c mice; assay: Allergy test (LLNA, murine local lymph node assay); format: in vivo, mouse; conditions: 0.5% and 1.0% solutions in ethanol, 50 μl to both ears for 3 days, [3H]-methylthymidine; versus control
Protocol: An experiment using ethanol as a carrier was selected for a safety test of the compound of Chemical Formula 1 when used as a cosmetic raw material [Reference: Kimber (1990): Identification of contact allergens using the murinelocal lymph node assay, J. Appl. Toxicol. 10(3); 173–180]. A control that uses cosmetic material for an anti-aging agent and the compound of Chemical Formula 1 were prepared in 0.5% and 1.0% solutions. 50 μl of the solution was applied to both ears of Balb/c mice for 3 days, and then the auricular lymph nodes were removed from the mice. The lymph nodes were pulverized to a monocell state, and radioisotope [3H]-methylthymidine was added thereto, after which a resulting material was cultured for 24 hours. Subsequently, amplification of cells (dpm, disintegrations per minute) was measured using a β-scintillation counter (Beckman LS 6000 TA, USA).

[4] = system: guinea pigs; assay: Skin irritation patch test; format: in vivo, guinea pig; conditions: O/W emulsion, 48 hours closed patch
Protocol: In order to test skin irritation of the compound of Chemical Formula 1, a patch test using guinea pigs was conducted [Reference: Draize, J. H. (1959): Dermal toxicity. Assoc. Food and Drug Officials, US. Appraisal of the safety of chemicals in Food, Drugs, and Cosmetics., pp 46–59, Texas State Dept. of Health, Austin, Tex. Federal Register (1973): Method of testing primary irritant substances 38(187): pp 1500–1541]. The compound represented by Chemical Formula 1 was prepared in an O/W emulsion of various concentrations. Fur on the back of the guinea pigs where the sample was to be coated was removed, and the area was allowed to adapt to the surroundings for 24 hours in order to minimize skin irritation that may be caused by the removal of the fur.
Next, a sample coating region was established (1.5 cm×1.5 cm), a sample and gauze were applied thereto, and the coated region was sealed with a thin paper of solid material in order to prevent loss, after which the sealing material was held firmly in place with an elastic bandage. The guinea pigs were maintained in this state for 48 hours then all the applied materials were removed. At two different time periods of 2 hours and 24 hours after removal of the closed patch (50 hours and 72 hours after patch application), the degree of irritation was determined and indicated by an irritation index (P11: primary cutaneous irritation index) and by an irritation degree scale.

[5] = system: human fibroblast; assay: Collagen synthesis effects test; format: cell-based; conditions: summary statement of test results
Protocol: In order to measure the usefulness of the Tat-human Type-collagen DP prepared in Example 1 as a skin anti-aging agent, it was tested by comparing the preparation with ascorbic acid, which is known to be a material having an exceptional collagen synthesis effect.
In this test, a human fibroblast of the same number was cultured on a 24-well plate for 24 hours, and the sample as a concentration of 10^−4 to 10^−7 was applied thereto. After 2 hours, proline introduced tridium was applied thereto and a resulting mixture was cultured for 24 hours. Next, an amount of collagen newly-synthesized and newly-secreted from fibroblast was measured a cpm (count per minute) of proline introduced tridium using a medium, and an amount of csp (collagenous sensitive protein) was calculated. A comparative measurement of the collagen synthesis effect was then performed (David F. W. and Wilson Harvey, Analytical Biochemistry (1979); 96, 220 224, Atsushi Hatamochi, Masashi Ono, Hiroaki Ueki, and Masayoshi Namba., J. Invest Dermatol. (1991) 96, 473 477).

[6] = Transdermal absorption (penetration into skin cells) test, Franz cell; format: in vitro ADME; conditions: nude mouse back skin 1.7 cm^2, 24 hours, HPLC and LC mass
Protocol: Penetration of a compound, agent, etc. into skin cells is commonly referred to as transdermal absorption, and this will be the term used herein. The transdermal absorption test was conducted using the fusion peptide prepared in Example 1 (Reference: Lehman P A, Slattery J T, Franz T J. Percutaneous absorption of retinoids: Influence of vehicle, light exposure, and dose, J. Invest Dermatol., 91; 56–61. 1998).
Specifically, skin on the back of a female nude mouse 8 weeks of age was cut to a specific depth and to an area of 1.7 cm^2, and the fusion peptide was applied thereto. After 24 hours, the receptor solution and material absorbed in the skin in the back of the mouse were extracted with a transdermal absorption measuring instrument (Franz cell), and quantitatively analyzed using high performance liquid chromatography (HPLC) and liquid chromatography mass (LC mass) techniques. That is, these techniques were used to measure the amount of the compound of Chemical Formula 1 of the present invention that underwent transdermal absorption. […] Example 5: Allergy Test of a Tat-human Type-I collagen DP fusion peptide (LLNA)(SEQ ID NO: 10)

With “KKKKKKKKKKTKS (Tat-human Type-I collagen DP fusion peptide)” the “cytotoxicity (MTT)” value ([1]; concentration of 0.01 or less) was “negligent level of toxicity”, the “cytotoxicity (MTT)” value ([1]; concentration of 0.1 (%, w.v) or more) was “very weak toxicity” and the “anti-aging effects on crow's-feet (visual observation)” value [2] was “exhibits anti-aging effects on crow's-feet”. For the same sequence, the “possibility of allergy induction” value [3] was “lower possibility of allergy induction than the control”, the “Irritation Degree” value ([4]; Concentration 0.01 %) was “Minute irritation” and the “Irritation Index (PII)” value ([4]; Concentration 0.01 %) was 0.52. For the same sequence, the “Irritation Degree” value ([4]; Concentration 0.1 %) was “Minute irritation”, the “Irritation Index (PII)” value ([4]; Concentration 0.1 %) was 0.53 and the “Irritation Degree” value ([4]; Concentration 0.5 %) was “Minute irritation”. The “Irritation Index (PII)” value ([4]; Concentration 0.5 %) was 0.53, the “synthesis of collagen and hyaluronic acid” value [5] was “superior synthesis of collagen and hyaluronic acid” and the transdermal absorption capability [6] was “superior transdermal absorption capability”.

Reference: US7094407B2, “Fusion peptide containing human type-1 collagen derived peptide, preparation thereof, and skin anti-aging cosmetic composition comprising the same” (LG Household & Health Care Ltd., priority 2002, dated 2006)
